In patent US20060257407A1 (Janssen / Centocor, published 2006):
Substitutions are numbered along the chain they refer to. Read-outs that look alike come from different tables or passages of the source. One block for each binder: values may come before it.

Experiments:
[1] = target: recombinant human IL-6 (human) (UniProt P05231); experiment: ELISA: IgG dilutions captured on goat anti-human kappa, biotinylated IL-6 at 200 ng/ml, NeutrAvidin-alkaline phosphatase, O.D. 560 after 15 min
[2] = target: recombinant human IL-6 (human) (UniProt P05231); experiment: calculated from KD = koff/kon, KinExA 3000
[3] = target: recombinant human IL-6 (human) (UniProt P05231); experiment: cell-based or functional assay
[4] = target: recombinant human IL-6 (human) (UniProt P05231); experiment: calculated, KinExA 3000
[5] = target: recombinant human IL-6 (human) (UniProt P05231); experiment: KinExA 3000, IgG at 200 pM mixed with 100-200 pM human IL-6, free IgG over time
[6] = target: recombinant human IL-6 (human) (UniProt P05231); experiment: KinExA 3000
[7] = target: recombinant human IL-6 (human) (UniProt P05231); experiment: cell-based or functional assay; remark: listed apart in the source
[8] = target: recombinant human IL-6 (human) (UniProt P05231); experiment: KinExA 3000, equilibrium in solution, IgG at 5 pM with serially diluted human IL-6, 20 C
[9] = target: IL-6/sIL-6R complex (human) (UniProt P08887); experiment: ELISA: sIL-6R coated at 10 µg/ml, human IL-6 added at 200 ng/ml, antibody dilutions, detection with HRP-anti-human IgG, OD490
recombinant human IL-6 [10] = target: T1, recombinant human IL-6 (human, UniProt P05231 30-212); experiment: KinExA 3000, equilibrium in solution, IgG at 1 pM with serially diluted human IL-6, 20 C
T1 construct: Bought from R&D Systems (206-IL-010); Biotinylated or coupled to beads in some assays; also called hIL-6; rhIL-6
Procedure: (§1) The KinExA 3000 instrument, manufactured by Sapidyne, was used to measure binding kinetics. Briefly, human IL-6 was covalently coupled to alzactone beads and the binding of free IgG to the beads was detected on the instrument. […] For example, the chimeric anti-IL-6 antibody was used at a constant concentration of 5 pM and individual tubes were incubated with 0-200 pM of IL-6. Incubations for the other IgGs were set in a similar manner. After the incubation, free IgG in each equilibrated sample was determined on the KinExA 3000 instrument according to the manufacturer's instructions. KD values were determined by the KinExA 3000 software using the KinExA 3000 instrument, as described in more detail below.

IL-6/sIL-6R complex = target: T2, IL-6/sIL-6R complex (human, UniProt P08887 20-358, limits assumed); experiment: EIA: sIL-6R coated, 200 ng/ml human IL-6, antibody dilutions from 10 ug/ml, anti-human IgG-HRP
T2 construct: Formed on the plate: sIL-6R coated at 10 ug/ml, then human IL-6 added at 200 ng/ml; also called sIL-6/sIL-6R complex; IL-6/IL-6R complex
Procedure: Costar EIA plates (Corning/Costar, Acton, Mass.) (Catalog # 9018) were coated with sIL-6R (10 μg/ml in PBS, 100 μl/well) overnight at 4° C. The plates were washed with 0.15M saline containing 0.02% (v/v) Tween 20 and wells were blocked with 1% (w/v) BSA in PBS, 200 μl/well for one hour at room temperature. The wells were washed again then in the sequential format incubated with 200 ng/ml human IL-6 (100 μl/well) in PBS for one hour at room temperature. Antibody was added to all wells in 10-fold serial dilutions from a starting concentration of 10 μg/ml in 100 μl/well for one hour at room temperature. After washing, the wells were incubated with goat anti-human IgG (H+L)-HRP-linked, (10 μg/ml in PBS) for 30 minutes at room temperature. The wells were washed and 100 μl/well of citrate-phosphate substrates solution (0.1M Citric Acid and 0.2M Sodium Phosphate, 0.01% H₂O₂ and 1 mg/ml OPD) was added for 15 minutes at room temperature. The reaction was stopped by addition of 25 μl/well of 4N sulfuric acid and the OD₄₉₀ was read via an automated ELISA plate reader (Molecular Devices Spectromax Plus, Sunnyvale, Calif.).
In addition, AME-A9, AME-A16, AME-18a, AME-20b, AME-22a, and AME-23a can detect IL-6 bound to sgp80 (sIL-6R) in a dose dependent manner using EIA. […] However, preincubation of IL-6 and any of these anti hIL-6 monoclonal antibodies precludes the ability of sIL-6R to bind IL-6.

recombinant human IL-6 [11] = target: T1, recombinant human IL-6; experiment: KinExA 3000
Procedure: as §1
(§2) To measure kₒₙ, individual IgGs at 200 pM were mixed with 100-200 pM of human IL-6 and the unbound IgG was detected by binding to human IL-6 covalently coupled to alzactone beads on the KinExA 3000 instrument. A series of measurements were taken over time. The resulting data was used to calculate the kₒₙ with the KinExA 3000 software. koff was calculated by using the formula KD=koff/kₒₙ.

recombinant human IL-6 [12] = target: T1, recombinant human IL-6; experiment: calculated, KinExA 3000
Procedure: as §1, §2

recombinant human IL-6 [13] = target: T1, recombinant human IL-6; experiment: KinExA 3000, IgG at 200 pM mixed with 100-200 pM human IL-6, free IgG over time
Procedure: as §2

recombinant human IL-6 [14] = target: T1, recombinant human IL-6; experiment: calculated from KD = koff/kon, KinExA 3000
Procedure: as §1, §2

recombinant human IL-6 [15] = target: T1, recombinant human IL-6; experiment: ELISA: IgG dilutions captured on goat anti-human kappa, biotinylated IL-6 at 200 ng/ml, NeutrAvidin-alkaline phosphatase, O.D. 560 after 15 min
Procedure: The ELISA generally used Costar 3366 microtiter plates coated with a goat anti-human kappa antibody. Dilutions of Fab (or IgG) were incubated in the coated wells for 1 hr at 22° C. The wells were then washed with PBS, 0.1% Tween 20 and biotinylated IL-6 at 200 ng/ml was added for 1 hour. After washing, an alkaline phosphatase conjugate of NeutrAvidin was added and incubated for 1 hour at 22° C. A colorimetric substrate was added after extensive washing and the bound IL-6 was determined. A variation of this ELISA included an extended wash step in a beaker of PBS, 0.01% BSA at 37° C. after the biotinylated IL-6 incubation, e.g., an 18 hour extended wash step.

recombinant human IL-6 [16] = target: T1, recombinant human IL-6; experiment: KinExA 3000, equilibrium in solution, IgG at 0.5 pM with serially diluted human IL-6, 20 C
Procedure: as §1

recombinant human IL-6 [17] = target: T1, recombinant human IL-6; experiment: cell-based or functional assay
recombinant human IL-6 [18] = target: T1, recombinant human IL-6; experiment: cell-based or functional assay; remark: listed apart in the source

Sequence of recombinant human IL-6 (human) (P05231 30-212 limits assumed): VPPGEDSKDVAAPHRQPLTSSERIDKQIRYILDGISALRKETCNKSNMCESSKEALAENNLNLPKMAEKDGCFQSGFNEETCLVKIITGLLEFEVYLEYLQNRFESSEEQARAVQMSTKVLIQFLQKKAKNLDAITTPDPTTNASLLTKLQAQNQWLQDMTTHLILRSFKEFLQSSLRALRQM
T1 sequence (P05231 30-212 limits assumed): as above
T2 sequence (chain, as listed by the source limits assumed, chain 1 of 2): as the sequence (P05231 30-212 limits assumed) above
T2 sequence (P08887 20-358 limits assumed, chain 2 of 2): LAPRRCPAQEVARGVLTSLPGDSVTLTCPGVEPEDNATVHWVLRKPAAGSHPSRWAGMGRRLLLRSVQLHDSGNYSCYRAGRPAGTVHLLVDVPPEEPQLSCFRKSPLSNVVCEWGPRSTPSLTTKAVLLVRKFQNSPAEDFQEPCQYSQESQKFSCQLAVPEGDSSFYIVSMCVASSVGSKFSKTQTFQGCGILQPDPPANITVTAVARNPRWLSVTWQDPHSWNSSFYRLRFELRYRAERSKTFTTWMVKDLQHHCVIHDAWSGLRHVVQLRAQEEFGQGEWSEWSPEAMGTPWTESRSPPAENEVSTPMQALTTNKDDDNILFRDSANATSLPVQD
Sequence of IL-6/sIL-6R complex (human) (chain, as listed by the source limits assumed, chain 1 of 2): as the sequence (P05231 30-212 limits assumed) above
Sequence of IL-6/sIL-6R complex (human) (P08887 20-358 limits assumed, chain 2 of 2): as the sequence (P08887 20-358 limits assumed, chain 2 of 2) above

- EC50 (read off the curve) [1]: 0.1 µg/mL
- koff [2]: 1.3e-05 s⁻¹
- Improvement Ratio of koff (against chimeric antibody) [4]: 1 fold
- kon [5]: 4.4e+06 M⁻¹ s⁻¹
- Improvement Ratio of KD (as compared to chimeric ab) [6]: 1 fold
- Improvement Ratio of kon (against chimeric antibody) [6]: 1 fold
- Kd [8]: 3 pM
- EC50 (read off the curve) [9]: 0.01 µg/mL
B1: chimeric anti-IL-6 antibody CNTO 328 (antibody, INN chains, looked up, V domains shown)
VH: EVQLVESGGKLLKPGGSLKLSCAASGFTFSSFAMSWFRQSPEKRLEWVAEISSGGSYTYYPDTVTGRFTISRDNAKNTLYLEMSSLRSEDTAMYYCARGLWGYYALDYWGQGTSVTVSS
VL: QIVLIQSPAIMSASPGEKVTMTCSASSSVSYMYWYQQKPGSSPRLLIYDTSNLASGVPVRFSGSGSGTSYSLTISRMEAEDAATYYCQQWSGYPYTFGGGTKLEIK
modifications: biotinylated in competition ELISA
- EC50, growth of IL-6 dependent 7TD1 cells with 500 pg/ml human IL-6 (ATPlite) [3]: 27 pM
- EC50, growth of IL-6 dependent 7TD1 cells with 500 pg/ml human IL-6 (ATPlite) [7]: 0.00409 µg/mL

- Kd (recombinant human IL-6 [10]): 0.78 pM
- binding result (IL-6/sIL-6R complex): binds
- Improvement Ratio of KD (as compared to chimeric ab) (recombinant human IL-6 [11]): 3.8 fold
- Improvement Ratio of kon (against chimeric antibody) (recombinant human IL-6 [11]): 1 fold
- Improvement Ratio of koff (against chimeric antibody) (recombinant human IL-6 [12]): 3.5 fold
- kon (recombinant human IL-6 [13]): 4.7e+06 M⁻¹ s⁻¹
- koff (recombinant human IL-6 [14]): 3.7e-06 s⁻¹
B2: AME-20b (antibody, V domains shown)
VH: EVQLVESGGGLVQPGGSLRLSCAASGFQFSSFAMSWVRQAPGKGLEWVAKISPGGSYTYYSDTVTGRFTISRDNAKNSLYLQMNSLRAEDTAVYYCARQLWGYYALDIWGQGTTVTVSS
VL: EIVLTQSPATLSLSPGERATLSCSASISVSYMYWYQQKPGQAPRLLIYDMSNLASGIPARFSGSGSGTDFTLTISSLEPEDFAVYYCMQWSGYPYTFGGGTKVEIK
notes: Tested as IgG; also called 140

- Kd (recombinant human IL-6 [10]): 0.18 pM
- Improvement Ratio of KD (as compared to chimeric ab) (recombinant human IL-6 [11]): 16.7 fold
- Improvement Ratio of kon (against chimeric antibody) (recombinant human IL-6 [11]): 1.3 fold
- Improvement Ratio of koff (against chimeric antibody) (recombinant human IL-6 [12]): 11.8 fold
- kon (recombinant human IL-6 [13]): 6e+06 M⁻¹ s⁻¹
- koff (recombinant human IL-6 [14]): 1.1e-06 s⁻¹
B3: AME-22a (antibody, V domains shown)
VH: B2 VH with S31P, Y57W, S61P, V64D, I108F
VL: B2 VL with I27Y, M50F
notes: Tested as IgG; also called 150

- binding result (IL-6/sIL-6R complex): binds
- Improvement Ratio of KD (as compared to chimeric ab) (recombinant human IL-6 [11]): 25 fold
- Improvement Ratio of kon (against chimeric antibody) (recombinant human IL-6 [11]): 4.4 fold
- EC50 (read off the curve) (recombinant human IL-6 [15]): ~0.09 µg/mL
- Improvement Ratio of koff (against chimeric antibody) (recombinant human IL-6 [12]): 5.4 fold
- kon (recombinant human IL-6 [13]): 2e+07 M⁻¹ s⁻¹
- Kd (recombinant human IL-6 [16]): 0.12 pM
- koff (recombinant human IL-6 [14]): 2.4e-06 s⁻¹
B4: AME-18a (antibody, V domains shown)
VH: B2 VH with S31P, Y57W
VL: B2 VL with I27S, M50F
notes: Tested as IgG; also called 130

- Improvement Ratio of KD (as compared to chimeric ab) (recombinant human IL-6 [11]): 81.1 fold
- Improvement Ratio of kon (against chimeric antibody) (recombinant human IL-6 [11]): 1.2 fold
- Improvement Ratio of koff (against chimeric antibody) (recombinant human IL-6 [12]): 65 fold
- kon (recombinant human IL-6 [13]): 5.5e+06 M⁻¹ s⁻¹
- Kd (recombinant human IL-6 [16]): 0.037 pM
- koff (recombinant human IL-6 [14]): 2e-07 s⁻¹
B5: AME-19a (antibody, V domains shown)
VH: B2 VH with Q28T, S31P, Y57W
VL: B2 VL
notes: Tested as IgG; also called 136; human engineered anti-IL-6 (clone AME-19a) antibody
- EC50, growth of IL-6 dependent 7TD1 cells with 500 pg/ml human IL-6 (ATPlite) (recombinant human IL-6 [17]): 0.00041 µg/mL
- EC50, growth of IL-6 dependent 7TD1 cells with 500 pg/ml human IL-6 (ATPlite) (recombinant human IL-6 [18]): 2.7 pM
- improvement of EC50 against CNTO328, 7TD1 cell assay (recombinant human IL-6 [18]): 10 fold

- Kd (recombinant human IL-6 [10]): 0.83 pM
- binding result (IL-6/sIL-6R complex): binds
- Improvement Ratio of KD (as compared to chimeric ab) (recombinant human IL-6 [11]): 3.6 fold
- Improvement Ratio of kon (against chimeric antibody) (recombinant human IL-6 [11]): 0.22 fold
- EC50 (read off the curve) (recombinant human IL-6 [15]): ~0.07 µg/mL
- Improvement Ratio of koff (against chimeric antibody) (recombinant human IL-6 [12]): 15.7 fold
- kon (recombinant human IL-6 [13]): 1e+06 M⁻¹ s⁻¹
- koff (recombinant human IL-6 [14]): 8.3e-07 s⁻¹
B6: AME-16 (antibody, V domains shown)
VH: B2 VH with Q28T, S61P, I108Y
VL: B2 VL with I27S, M50T, M88S
notes: Tested as IgG; also called AME-A16; 106

- Kd (recombinant human IL-6 [10]): 0.006 pM
- binding result (IL-6/sIL-6R complex): binds
- Improvement Ratio of KD (as compared to chimeric ab) (recombinant human IL-6 [11]): 500 fold
- Improvement Ratio of kon (against chimeric antibody) (recombinant human IL-6 [11]): 1.6 fold
- Improvement Ratio of koff (against chimeric antibody) (recombinant human IL-6 [12]): 295 fold
- kon (recombinant human IL-6 [13]): 7.4e+06 M⁻¹ s⁻¹
- koff (recombinant human IL-6 [14]): 4.4e-08 s⁻¹
B7: AME-23a (antibody, V domains shown)
VH: B2 VH with I108F
VL: B2 VL with I27Y
notes: Tested as IgG; also called 143

- binding result (IL-6/sIL-6R complex): binds
- EC50 (read off the curve) (recombinant human IL-6 [15]): ~0.09 µg/mL
B8: AME-A9 (antibody, V domains shown)
VH: B2 VH with Q28T, P53S, S61P, I108Y
VL: B2 VL with I27S, M50T, M88S
notes: Human engineered monoclonal antibody, detected with anti-human IgG; also called 104
